{
  "source": "paper PMC4771738",
  "key": {"GFP-syntaxin 8": {"molecular_target": "GFP-syntaxin 8 (UniProt Q9UNK0)", "sequence (Q9UNK0 whole entry, the tested form may be a part)": "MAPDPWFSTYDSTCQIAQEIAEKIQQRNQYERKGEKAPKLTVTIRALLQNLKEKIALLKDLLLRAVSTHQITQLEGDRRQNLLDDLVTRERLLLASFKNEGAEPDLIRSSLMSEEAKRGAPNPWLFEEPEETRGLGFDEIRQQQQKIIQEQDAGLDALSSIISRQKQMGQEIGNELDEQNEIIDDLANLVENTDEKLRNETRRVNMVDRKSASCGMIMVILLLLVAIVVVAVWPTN", "assay": "co-IP; HEK 293 cells co-transfected with myc-tagged Rab and GFP fusion; lysis in 50 mM Tris pH 7.4, 150 mM NaCl, 1% Triton X-100; GFP fusions precipitated on GBP agarose beads, room temperature 1.5 h; blot for myc and GFP; co-IP efficiency = co-IP / input"}, "GFP-dynactin 6": {"molecular_target": "GFP-dynactin 6 (UniProt O00399)", "sequence (O00399 whole entry, the tested form may be a part)": "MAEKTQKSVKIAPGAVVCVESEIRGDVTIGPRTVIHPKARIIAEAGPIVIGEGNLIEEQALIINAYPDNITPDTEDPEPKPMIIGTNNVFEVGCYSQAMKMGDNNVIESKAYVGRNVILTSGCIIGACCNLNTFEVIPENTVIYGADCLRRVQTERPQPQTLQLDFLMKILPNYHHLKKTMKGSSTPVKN", "assay": "co-IP; HEK 293 cells co-transfected with myc-tagged Rab and GFP fusion; lysis in 50 mM Tris pH 7.4, 150 mM NaCl, 1% Triton X-100; GFP fusions precipitated on GBP agarose beads, room temperature 1.5 h; blot for myc and GFP; co-IP efficiency = co-IP / input"}},
  "data": [
    {"substance": "myc-tagged GDP-locked Rab41/6d (from UniProt Q5JT25 1-222) (natural protein)", "values": [
      {"measurement": "co-IP efficiency (co-IP divided by input)", "setting": "GFP-syntaxin 8", "value": 1.9, "unit": "%"},
      {"measurement": "co-IP efficiency (co-IP divided by input)", "setting": "GFP-dynactin 6", "value": 2, "unit": "%"}
    ]},
    {"substance": "myc-tagged GTP-locked Rab41/6d (from UniProt Q5JT25 1-222) (natural protein)", "values": [
      {"measurement": "co-IP efficiency (co-IP divided by input)", "setting": "GFP-syntaxin 8", "value": 3.3, "unit": "%"},
      {"measurement": "co-IP efficiency (co-IP divided by input)", "setting": "GFP-dynactin 6", "value": 2.7, "unit": "%"}
    ]}
  ]
}
